From paper PMC6399351, “Cationic Intrinsically Disordered Antimicrobial Peptides (CIDAMPs) Represent a New Paradigm of Innate Defense with a Potential for Novel Anti-Infectives” (Scientific Reports, 2019)
Where two headings read alike, the source gives them in different places. Ends that are not written are not given here.

Assays:
[1] = test system: Klebsiella pneumonia ATCC 700603; conditions: MDR strain; CLSI, Mueller–Hinton broth, 5 × 10^5 CFU/mL, 18 h 37 °C, by CO-ADD
S. aureus ATCC 6538 = conditions: CFU assay, 10 mM NaP, pH 5.5, 0.25% glucose
[2] = test system: Pseudomonas aeruginosa ATCC 27853; assay: CO-ADD MIC, broth microdilution (CLSI); format: cell-based; conditions: Mueller–Hinton broth, 5 × 10^5 CFU/mL, 18 h 37 °C, by CO-ADD
Source text: (§1) They were defined as the lowest peptide
(§2) Further details of the screening

[3] = test system: Acinetobacter baumannii ATCC 19606; assay: CO-ADD MIC, broth microdilution (CLSI); format: cell-based; conditions: Mueller–Hinton broth, 5 × 10^5 CFU/mL, 18 h 37 °C, by CO-ADD
Source text: as §1, §2

E. coli ATCC 11775 = assay: CFU assay of antimicrobial activity; format: cell-based, Escherichia coli; conditions: 10 mM NaP
Protocol: (§3) All purified peptides and recombinant proteins were applied using a colony forming unit (CFU) assay in different media. Bacteria were grown to early log-phase in BHI, washed either with 10 mM Na-P, pH 7.4/1% TSB or pH 5.5/1% TSB, or pH 5.5 without TSB or BHI, and adjusted to a concentration of 10^4–10^5 colony forming units (CFU)/ml. For cell number control, 100 µl aliquots were diluted 1:10, 1:100 and 1:1000 and plated in duplicates on BHI agar plates. To 100 µl aliquots of the bacteria, suspended in the respective medium (10 mM Na-P buffer pH 7,0–7,4/ 1% (w/v) TSB; 10 mM Na-P buffer pH 5,5/ 1% (w/v) TSB; 10 mM Na-P buffer pH 7,0–7,4/ 1% (w/v) TSB pH 7,0–7,4/ 0,25% (w/v) glucose; 10 mM Na-P buffer pH 5,5/ 0,25% (w/v) glucose, respectively), 10 µl of a solution of the peptide or protein (two-fold dilutions, from 300 µg/ml or 150 µg/ml down to 19 ng/ml), dissolved in 0.01% (v/v) acetic acid, were added.
(§4) Then bacteria were incubated for 2 h at ambient temperature, if not otherwise stated. 10 µl of 0.01% (v/v) acetic acid, added to 100 µl aliquots of the bacteria in the respective medium, served as negative control. From each test, 1:10 and 1:100 dilutions were generated and plated as duplicates of 100 µl aliquots on BHI agar plates. After 16 h incubation at 37 °C, CFU were counted using a colony counter (Bio Kobe, Japan) and expressed as mean of the duplicate estimation to achieve a complete dose-response curve. All experiments were performed at serial dilutions in a concentration range of 100 µg/mL −25 ng/mL for recombinant HRNR fragments and 300 or 150 µg/mL–19 ng/mL for synthetic peptides.

[4] = test system: Acinetobacter baumannii ATCC 19606; conditions: CFU assay, 10 mM NaP, pH 6.0, 0.25% glucose
[5] = test system: Staphylococcus aureus ATCC 43300; conditions: MRSA; CLSI, Mueller–Hinton broth, 5 × 10^5 CFU/mL, 18 h 37 °C, by CO-ADD
[6] = test system: Streptococcus pneumoniae ATCC 33400; assay: CFU assay of antimicrobial activity; format: cell-based; conditions: 10 mM NaP, pH 6.5, 0.25% glucose
Protocol: as §3, with “[…];” for “10 mM Na-P buffer pH 5,5/ 1% (w/v) TSB;”
as §4

[7] = test system: Streptococcus pyogenes ATCC 12344; assay: CFU assay of antimicrobial activity; format: cell-based; conditions: 10 mM NaP, pH 6.0, 0.25% glucose
Protocol: as §3, with “[…];” for “10 mM Na-P buffer pH 5,5/ 1% (w/v) TSB;”
as §4

[8] = test system: Proteus mirabilis ATCC 21100; conditions: CFU assay, 10 mM NaP, pH 6.0, 0.25% glucose
[9] = test system: Burkholderia cepacia ATCC 25416; conditions: CFU assay, 10 mM NaP, pH 5.5, 0.25% glucose
E. coli ATCC 25922 = assay: CO-ADD MIC, broth microdilution (CLSI); format: cell-based, Escherichia coli; conditions: Mueller–Hinton broth, 5 × 10^5 CFU/mL, 18 h 37 °C, by CO-ADD
Source text: as §1, §2

P. aeruginosa ATCC 10145 = conditions: CFU assay
[10] = test system: Enterococcus faecium DSM 2146; conditions: CFU assay, 10 mM NaP, pH 5.5, 0.25% glucose
C. albicans ATCC 24433 = assay: CFU assay of antimicrobial activity; format: cell-based, Candida albicans; conditions: 10 mM NaP
Protocol: Bacteria were cultivated in either brain heart infusion medium (BHI), lysogeny broth (LB) or tryptic soy broth (TSB)[88]. If not otherwise stated, bacteria were incubated under shaking conditions (37 °C at 170 rpm) or as indicated on the ATCC- or DSM-data sheets. Candida albicans was cultured for 3 days on Yeast Extract-Peptone Dextrose (YPD) agar at 30 °C and yeast suspensions at appropriate density were treated with CIDAMPs as indicated.
as §3, §4

[11] = test system: Cryptococcus neoformans ATCC 208821; assay: CO-ADD MIC, antifungal assay (CLSI); format: cell-based; conditions: Yeast Nitrogen Base broth, 24 h 35 °C, by CO-ADD
Protocol: (§5) Fungi strains were cultured for 3 days on Yeast Extract-Peptone Dextrose (YPD) agar at 30 °C. A yeast suspension of 1 × 10^6 to 5 × 10^6 cells/mL (as determined by OD530) was prepared from five colonies. These stock suspensions were diluted with Yeast Nitrogen Base (YNB) broth to a final concentration of 2.5 × 10^3 CFU/mL. […] Plates were covered and incubated at 35 °C for 24 h without shaking.

[12] = test system: Candida albicans ATCC 90028; assay: CO-ADD MIC, antifungal assay (CLSI); format: cell-based; conditions: Yeast Nitrogen Base broth, 24 h 35 °C, by CO-ADD
Protocol: as §5

Lys-C = molecular target: T1, Lys-C (Lysobacter enzymogenes, UniProt Q7M135); assay: Protease sensitivity testing of HRNR; format: in vitro ADME; conditions: n = 3
T1 construct: purchased Roche
Source text: (§6) All data shown are representatives (n = 3).
Thereafter samples were subjected to a
Data shown are representatives
(§7) Lane 16 (“without protease”)
(§8) Table 1) have been directly applied. Note the presence of multiple bands, which originate
(§9) from oligomeric HRNR-complexes12. Data shown are representatives (n=3).

trypsin = format: in vitro ADME; conditions: for digestion by trypsin: 500 ng, 0.7 nM protease, pH 7.5, 15 h, Western blot
Source text: as §6, §7, §8, §9

collagenase = conditions: 1 µg, 1 h 37 °C, SDS-PAGE, silver staining; at higher concentrations, n = 3
KLK1 = molecular target: T2, KLK1 (Homo sapiens, UniProt P06870); assay: Protease sensitivity testing of HRNR; format: in vitro ADME; conditions: 500 ng, 0.7 nM protease, pH 7.5, 15 h, Western blot, n = 3
T2 construct: purchased R&D
Protocol: as §7
(§10) Table 1) have been directly applied. Note the presence of multiple bands, which originate from oligomeric HRNR-complexes12. Data shown are representatives (n=3).
(§11) Supplementary Fi gur e 14 :
(§12) For SDS-PAGE analyses 250 ng of […]
(§13) manner, however in the absence of a protease. […]
(§14) have been directly applied. Note a marked decrease of PAD1-deiminated rHRNR2591-2684 electromobility (lane 16) relative to rHRNR2591-2684 (lane 17). D ata shown are represent a tives

KLK7 = molecular target: T3, KLK7 (Homo sapiens, UniProt P49862); assay: Protease sensitivity testing of HRNR; format: in vitro ADME; conditions: 500 ng, 0.7 nM protease, pH 7.5, 15 h, Western blot, n = 3
T3 construct: purchased R&D
Protocol: as §7, §10, §11, §12, §13, §14

α-chymotrypsin = test system: T4, α-chymotrypsin; assay: Protease sensitivity testing of HRNR; format: in vitro ADME, human; conditions: 10 µg, 18 h 37 °C, 1 ng to 1 pg, SDS-PAGE and HRNR Western blot, n = 3
T4 construct: purchased Sigma
Source text: as §6

thermolysin = thermolysin (Bacillus thermoproteolyticus, UniProt P00800); conditions: 10 µg, 18 h 37 °C, 10 ng to 10 pg, SDS-PAGE and HRNR Western blot, n = 3
enterokinase EKMax = molecular target: T5, enterokinase EKMax (Bos taurus, UniProt P98072); assay: Protease sensitivity testing of HRNR; format: in vitro ADME; conditions: 10 µg, 18 h 37 °C, 0,1 U to 0,0001 U, SDS-PAGE and HRNR Western blot, n = 3
T5 construct: purchased Invitrogen
Source text: as §6

[13] = 10 mM NaP, pH 5.5, 0.25% glucose

T1 sequence (Q7M135 whole entry): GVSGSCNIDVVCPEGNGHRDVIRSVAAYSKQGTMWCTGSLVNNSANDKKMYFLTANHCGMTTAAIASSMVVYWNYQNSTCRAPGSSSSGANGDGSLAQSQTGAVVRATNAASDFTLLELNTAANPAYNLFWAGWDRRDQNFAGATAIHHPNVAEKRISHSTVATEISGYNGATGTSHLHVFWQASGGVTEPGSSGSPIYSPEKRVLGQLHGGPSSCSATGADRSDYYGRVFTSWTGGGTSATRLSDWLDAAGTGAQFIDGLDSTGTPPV
T4 sequence (P17538 34-164 limits assumed, other chains not shown): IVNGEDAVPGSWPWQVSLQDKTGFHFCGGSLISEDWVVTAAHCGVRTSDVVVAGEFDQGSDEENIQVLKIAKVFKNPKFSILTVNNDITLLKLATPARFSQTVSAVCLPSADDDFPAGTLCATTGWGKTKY
T4 sequence (P17538 167-263 limits assumed, other chains not shown): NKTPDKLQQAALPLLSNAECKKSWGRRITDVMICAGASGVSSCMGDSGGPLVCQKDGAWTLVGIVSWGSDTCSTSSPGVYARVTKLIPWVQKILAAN
T2 sequence (P06870 25-262): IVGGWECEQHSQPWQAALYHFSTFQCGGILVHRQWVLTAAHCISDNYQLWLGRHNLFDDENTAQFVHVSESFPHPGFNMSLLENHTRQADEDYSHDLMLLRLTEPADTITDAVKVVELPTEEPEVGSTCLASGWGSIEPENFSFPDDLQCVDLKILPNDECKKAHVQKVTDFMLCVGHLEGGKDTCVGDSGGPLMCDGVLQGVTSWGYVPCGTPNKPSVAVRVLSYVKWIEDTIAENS
T3 sequence (P49862 30-253): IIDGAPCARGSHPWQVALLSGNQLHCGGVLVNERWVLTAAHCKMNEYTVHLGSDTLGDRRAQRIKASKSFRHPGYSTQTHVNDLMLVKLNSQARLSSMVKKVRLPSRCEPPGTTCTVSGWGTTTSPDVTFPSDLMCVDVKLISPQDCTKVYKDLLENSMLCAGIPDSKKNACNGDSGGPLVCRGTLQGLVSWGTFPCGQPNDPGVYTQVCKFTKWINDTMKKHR
T5 sequence (P98072 801-1035 limits assumed): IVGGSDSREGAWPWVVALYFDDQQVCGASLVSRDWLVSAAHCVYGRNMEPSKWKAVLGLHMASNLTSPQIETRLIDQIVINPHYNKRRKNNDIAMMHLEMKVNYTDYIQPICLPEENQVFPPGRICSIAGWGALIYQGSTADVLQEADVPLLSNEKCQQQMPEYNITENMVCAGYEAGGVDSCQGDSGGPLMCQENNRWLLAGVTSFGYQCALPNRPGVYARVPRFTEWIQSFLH
thermolysin, sequence (P00800 233-548): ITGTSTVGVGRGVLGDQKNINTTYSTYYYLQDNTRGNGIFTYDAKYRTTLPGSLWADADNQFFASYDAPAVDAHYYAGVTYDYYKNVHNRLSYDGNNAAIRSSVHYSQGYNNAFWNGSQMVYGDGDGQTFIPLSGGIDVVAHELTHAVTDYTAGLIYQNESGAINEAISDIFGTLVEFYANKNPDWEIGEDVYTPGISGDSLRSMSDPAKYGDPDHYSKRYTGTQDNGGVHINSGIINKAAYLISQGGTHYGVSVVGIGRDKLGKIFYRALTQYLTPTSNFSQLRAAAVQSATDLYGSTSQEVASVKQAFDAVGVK

Molecule: GRHGSGLGHSSSHGQHGSGSGR [HR 1-18]
- Minimal inhibitory concentration (MIC) [1]: >32 µg/mL
- LD90 (S. aureus ATCC 6538): >300 µg/mL
- Minimal inhibitory concentration (MIC) [2]: >32 µg/mL
- Minimal inhibitory concentration (MIC) [3]: >32 µg/mL
- LD90 (E. coli ATCC 11775; pH 5.5, 1% TSB): >300 µg/mL
- LD90 [4]: 1.18 µg/mL
- Minimal inhibitory concentration (MIC) [5]: >32 µg/mL
- LD90 [6]: >300 µg/mL
- LD90 [7]: >300 µg/mL
- LD90 [8]: >300 µg/mL
- LD90 [9]: >300 µg/mL
- Minimal inhibitory concentration (MIC) (E. coli ATCC 25922): >32 µg/mL
- LD90 (P. aeruginosa ATCC 10145; [13]): 0.038 µg/mL
- LD90 (P. aeruginosa ATCC 10145; 10 mM NaP, pH 5.5, 1% TSB): 0.15 µg/mL
- LD90 (P. aeruginosa ATCC 10145; 10 mM NaP/0.25% glucose/pH 5.5, 1% TSB): 1.18 µg/mL
- LD90 (P. aeruginosa ATCC 10145; 10 mM NaP/0.25% glucose/pH 5.5, 3% TSB): 37.5 µg/mL
- LD90 (P. aeruginosa ATCC 10145; 10 mM NaP/0.25% glucose/pH 5.5, 10% TSB): > 300 µg/mL
- LD90 [10]: 150 µg/mL
- LD90 (C. albicans ATCC 24433; pH 5.5, 0.25% glucose): 18.8 µg/mL
- LD90 (C. albicans ATCC 24433; pH 5.5, 1% TSB): 150 µg/mL
- Minimal inhibitory concentration (MIC) [11]: >32 µg/mL
- Minimal inhibitory concentration (MIC) [12]: >32 µg/mL

B1: rHRNR2591–2684: recombinant HRNR fragment (protein, UniProt Q86YZ3 2591-2684, looked up, fragment)
chain: SQHGSGSGHSSGYGQHGSRSGQSSRGERHGSSSGSSSHYGQHGSGSRQSSGHGRQGSGSGQSPSRGRHGSGLGHSSSHGQHGSGSGRSSSRGPY
- digestion by Lys C (Lys-C; 1 µg, 1 h 37 °C, SDS-PAGE, silver staining, at higher concentrations): sensitivity
- LD90 (E. coli ATCC 11775; pH 5.5, 0.25% glucose): 0.2 µg/mL
- LD100 (E. coli ATCC 11775; pH 5.5, 0.25% glucose): >100 µg/mL
- digestion by trypsin (trypsin; n = 3): digest
- LD90 (P. aeruginosa ATCC 10145; [13]): 0.025 µg/mL
- LD100 (P. aeruginosa ATCC 10145; [13]): 0.1 µg/mL
- LD90 (C. albicans ATCC 24433; pH 5.5, 0.25% glucose): 0.39 µg/mL
- LD100 (C. albicans ATCC 24433; pH 5.5, 0.25% glucose): 6.25 µg/mL
- digestion by collagenase (collagenase): sensitivity

B2: PAD1-deiminated rHRNR2591-2684: Protein Arginine Deiminase 1 (PAD1)-deiminated rHRNR2591–2684, Arg citrullinated (protein, UniProt Q86YZ3 2591-2684, looked up, fragment)
chain: B1 chain
modifications: PAD1-deiminated, arginines citrullinated
notes: Protein Arginine Deiminase 1 (PAD1)-deiminated rHRNR2591–2684, Arg citrullinated
- digestion by LysC (Lys-C; 500 ng, 0.7 nM protease, pH 7.5, 15 h, Western blot): digest
- digestion by trypsin (trypsin; n = 3): digest
- digestion by KLK1 (KLK1): digest
- digestion by KLK7 (KLK7): digest

B3: rHRNR2576–2707: recombinant HRNR fragment (protein, UniProt Q86YZ3 2576-2707, looked up, fragment)
chain: GFGHHESSSGQSSSYSQHGSGSGHSSGYGQHGSRSGQSSRGERHGSSSGSSSHYGQHGSGSRQSSGHGRQGSGSGQSPSRGRHGSGLGHSSSHGQHGSGSGRSSSRGPYESRLGHSSVFGQHESGSGHSSAY
- sensitivity towards Lys-C (Lys-C; 10 µg, 18 h 37 °C, 10 ng to 10 pg, SDS-PAGE and HRNR Western blot): highly sensitive
- LD90 (E. coli ATCC 11775; pH 5.5, 0.25% glucose): 0.55 µg/mL
- LD100 (E. coli ATCC 11775; pH 5.5, 0.25% glucose): >100 µg/mL
- sensitivity towards trypsin (trypsin; 10 µg, 18 h 37 °C, 100 pg to 0,1 pg trypsin (not modified), SDS-PAGE and HRNR Western blot, n = 3): highly sensitive
- amount of unmodified trypsin that digests (trypsin; 10 µg, 18 h 37 °C, SDS-PAGE and HRNR Western blot): 1 pg
- sensitivity towards α-chymotrypsin (α-chymotrypsin): highly sensitive
- LD90 (P. aeruginosa ATCC 10145; [13]): 0.035 µg/mL
- LD100 (P. aeruginosa ATCC 10145; [13]): 0.275 µg/mL
- LD90 (C. albicans ATCC 24433; pH 5.5, 0.25% glucose): 0.55 µg/mL
- LD100 (C. albicans ATCC 24433; pH 5.5, 0.25% glucose): >140 µg/mL
- sensitivity towards thermolysin (thermolysin): highly sensitive
- sensitivity towards enterokinase EKMax (enterokinase EKMax): highly sensitive
